Laboratory results as given in patent US7192735.
Values joined by “and” are separate entries in the source; they are usually repeats but may differ in a detail not shown here. Identical values can stand only once.

Legend:
[1] = molecular target: EntF (E. coli enterobactin synthetase component), apo form (UniProt P11454)
[2] = molecular target: His6-SrfB1 (N-terminal hexa-histidine-tagged SrfB1 valine-activating domain of surfactin synthetase) (Bacillus) (UniProt Q04747); assay: cell-based or functional assay
[3] = test system: Streptomycete ACP involved in granaticin polyketide antibiotic biosynthesis (apo-form)
[4] = test system: Streptomycete ACP involved in tetracenomycin polyketide antibiotic biosynthesis (apo-form)
[5] = test system: Rhizobial NodF (wild-type)
[6] = test system: Streptomycete ACP involved in frenolicin polyketide antibiotic biosynthesis (apo-form)
[7] = test system: Lactobacillus casei D-Alanyl carrier protein (apo-Dcp)
[8] = molecular target: E. coli fatty acid synthase apo-acyl carrier protein (apo-ACP) (UniProt P0A6A8)
[9] = test system: Streptomycete ACP involved in oxytetracycline polyketide antibiotic biosynthesis (apo-form)
[10] = test system: His6-peptidyl carrier protein (PCP domain of TycA, hexa-histidine tagged)
[11] = molecular target: T1, His6-SrfB1 (N-terminal hexa-histidine-tagged SrfB1 valine-activating domain of surfactin synthetase) (UniProt Q04747)
T1 sequence: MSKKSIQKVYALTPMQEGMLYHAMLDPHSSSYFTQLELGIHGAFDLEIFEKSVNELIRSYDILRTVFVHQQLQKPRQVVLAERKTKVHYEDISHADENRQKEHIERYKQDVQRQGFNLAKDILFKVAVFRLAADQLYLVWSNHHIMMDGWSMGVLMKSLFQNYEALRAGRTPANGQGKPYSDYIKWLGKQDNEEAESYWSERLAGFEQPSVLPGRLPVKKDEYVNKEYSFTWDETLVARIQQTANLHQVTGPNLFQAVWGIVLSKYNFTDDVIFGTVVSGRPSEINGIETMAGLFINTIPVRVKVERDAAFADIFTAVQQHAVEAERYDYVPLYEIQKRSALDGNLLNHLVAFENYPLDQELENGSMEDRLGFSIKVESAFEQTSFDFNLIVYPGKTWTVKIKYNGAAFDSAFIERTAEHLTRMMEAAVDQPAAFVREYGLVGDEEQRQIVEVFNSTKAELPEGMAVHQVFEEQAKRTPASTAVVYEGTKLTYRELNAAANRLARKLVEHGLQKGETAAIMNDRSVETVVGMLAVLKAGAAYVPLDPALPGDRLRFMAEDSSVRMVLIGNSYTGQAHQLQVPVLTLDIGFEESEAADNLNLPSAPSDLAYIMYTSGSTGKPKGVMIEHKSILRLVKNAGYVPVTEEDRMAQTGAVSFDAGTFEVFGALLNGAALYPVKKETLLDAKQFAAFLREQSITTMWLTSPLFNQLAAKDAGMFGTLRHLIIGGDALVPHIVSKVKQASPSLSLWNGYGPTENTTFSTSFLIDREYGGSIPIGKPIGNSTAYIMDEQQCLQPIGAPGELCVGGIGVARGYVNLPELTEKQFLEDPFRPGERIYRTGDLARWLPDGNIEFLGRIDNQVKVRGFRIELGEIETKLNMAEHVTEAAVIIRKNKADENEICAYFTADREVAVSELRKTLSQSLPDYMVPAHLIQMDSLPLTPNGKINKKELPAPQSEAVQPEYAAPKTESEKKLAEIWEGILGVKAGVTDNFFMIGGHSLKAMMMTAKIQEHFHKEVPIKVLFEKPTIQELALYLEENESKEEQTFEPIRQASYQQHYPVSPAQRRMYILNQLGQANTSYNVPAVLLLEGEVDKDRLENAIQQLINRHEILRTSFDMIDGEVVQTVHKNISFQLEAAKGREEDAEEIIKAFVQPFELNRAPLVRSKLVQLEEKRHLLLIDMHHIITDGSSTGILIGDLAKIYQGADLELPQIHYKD

Sequence of E. coli fatty acid synthase apo-acyl carrier protein (apo-ACP) (P0A6A8 2-78): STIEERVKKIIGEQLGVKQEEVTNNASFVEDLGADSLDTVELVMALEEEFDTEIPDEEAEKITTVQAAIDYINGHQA
Sequence of EntF (E. coli enterobactin synthetase component), apo form (P11454 whole entry, the tested form may be a part): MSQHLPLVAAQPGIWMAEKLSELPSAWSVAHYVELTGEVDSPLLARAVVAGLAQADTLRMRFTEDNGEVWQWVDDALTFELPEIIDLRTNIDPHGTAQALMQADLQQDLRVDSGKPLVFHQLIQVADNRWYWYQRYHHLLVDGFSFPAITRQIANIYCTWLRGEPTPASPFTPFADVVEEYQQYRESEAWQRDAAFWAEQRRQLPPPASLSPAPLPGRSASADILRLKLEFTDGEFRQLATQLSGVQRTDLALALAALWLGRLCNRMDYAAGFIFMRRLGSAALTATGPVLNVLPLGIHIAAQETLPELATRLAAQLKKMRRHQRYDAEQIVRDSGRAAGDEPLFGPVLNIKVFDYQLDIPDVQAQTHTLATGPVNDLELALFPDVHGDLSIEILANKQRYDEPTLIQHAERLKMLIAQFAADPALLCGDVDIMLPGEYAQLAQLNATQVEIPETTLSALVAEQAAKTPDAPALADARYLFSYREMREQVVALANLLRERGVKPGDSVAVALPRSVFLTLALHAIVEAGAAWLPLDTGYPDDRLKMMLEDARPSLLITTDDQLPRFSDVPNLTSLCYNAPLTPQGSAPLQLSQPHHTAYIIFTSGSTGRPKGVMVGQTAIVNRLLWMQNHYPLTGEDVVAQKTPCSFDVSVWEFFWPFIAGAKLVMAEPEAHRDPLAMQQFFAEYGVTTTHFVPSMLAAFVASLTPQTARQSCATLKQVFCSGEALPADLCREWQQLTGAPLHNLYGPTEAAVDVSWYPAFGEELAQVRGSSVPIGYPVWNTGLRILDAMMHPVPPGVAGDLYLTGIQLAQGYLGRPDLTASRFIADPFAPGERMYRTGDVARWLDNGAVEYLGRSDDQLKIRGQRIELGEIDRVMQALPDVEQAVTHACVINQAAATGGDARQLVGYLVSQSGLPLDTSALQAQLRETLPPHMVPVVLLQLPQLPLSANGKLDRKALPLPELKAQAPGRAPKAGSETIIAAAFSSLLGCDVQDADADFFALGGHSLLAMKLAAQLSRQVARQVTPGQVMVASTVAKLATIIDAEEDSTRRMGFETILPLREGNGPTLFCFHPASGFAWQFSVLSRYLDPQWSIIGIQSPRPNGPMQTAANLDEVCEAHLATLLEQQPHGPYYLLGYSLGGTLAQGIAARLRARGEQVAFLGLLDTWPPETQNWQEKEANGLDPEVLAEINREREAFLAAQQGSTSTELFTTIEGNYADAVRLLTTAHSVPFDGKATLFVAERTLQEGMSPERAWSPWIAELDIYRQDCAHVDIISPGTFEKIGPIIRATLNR

## EntD (E. coli), recombinant from pET28b-entD
[1]
  incorporation of [3H]-4'-Ppant: EntD is capable of phosphopantetheinylating an EntF fragment
  time course of incorporation of radiolabel into EntF: EntF is modified effectively by EntD (100 nM)

## Sfp (B. subtilis phosphopantetheinyl transferase) (enzyme)
[2]
  level of [^14C]-L-valine-holo-SrfB1 covalent complex formed: 14 fold

## Escherichia coli holo-acyl carrier protein synthase (ACPS)
[3]
  phosphopantetheinylation: E. coli ACPS modifies the apo-form of Streptomycete ACPs involved in frenolicin, granaticin, oxytetracycline, and tetracenomycin polyketide antibiotic biosynthesis
[4]
  phosphopantetheinylation: E. coli ACPS modifies the apo-form of Streptomycete ACPs involved in frenolicin, granaticin, oxytetracycline, and tetracenomycin polyketide antibiotic biosynthesis
[5]
  % conversion: 47% conversion
  [3H]phosphopantetheine incorporated (+ ACPS): 236 000 dpm
[6]
  phosphopantetheinylation: E. coli ACPS modifies the apo-form of Streptomycete ACPs involved in frenolicin, granaticin, oxytetracycline, and tetracenomycin polyketide antibiotic biosynthesis
[1]
  time course of incorporation of radiolabel into EntF: EntF undergoes almost no modification in the presence of 15-fold higher concentrations of ACPS and o195
ACP-NodF chimera
  [3H]phosphopantetheine incorporated (+ ACPS): 122 000 dpm
[7]
  [^3H] holo-Dcp formed versus apo-Dcp: the amount of holo-Dcp formed increases linearly with the amount of apo-Dcp in the reaction
  radioactivity incorporated into the protein fraction (Dcp + ACPS): 0.98 × 10^6 (±0.95%) and 1.04 × 10^6 (±0.93%) and 1.00 × 10^6 (±0.77%)
[8]
  % conversion: 46% conversion
  Km value for apo-ACP: we were able to assign an upper limit of ˜1 µM to the Km value for apo-ACP
  [3H]phosphopantetheine incorporated (+ ACPS): 1 320 000 dpm
  apparent kcat: An apparent kcat value of about 10 min^-1 was measured at saturating CoA and 50 µM apo-ACP
  radioactivity incorporated into the protein fraction (ACP + ACPS): 2.13 × 10^6 (±.65%) and 2.20 × 10^6 (±.64%) and 2.21 × 10^6 (±.63%)
  time course of holo-ACP formation: almost exclusive modification of apo-ACP by ACPS
[9]
  phosphopantetheinylation: E. coli ACPS modifies the apo-form of Streptomycete ACPs involved in frenolicin, granaticin, oxytetracycline, and tetracenomycin polyketide antibiotic biosynthesis

## Sfp (B. subtilis phosphopantetheinyl transferase)
[10]
  [3H]-4'-Ppant incorporated versus substrate concentration: Sfp is capable of phosphopantetheinylating a substrate, such as PCP, in a wide range of concentrations
  phosphopantetheinylation: Sfp efficiently catalyzes modification of all three substrates
[11]
  incorporation of [3H]-4'-Ppant: Sfp is capable of phosphopantetheinylating an SfrB1 fragment
[8]
  phosphopantetheinylation: Sfp efficiently catalyzes modification of all three substrates
